Assay results published in publication PMC3400432 (Developmental Cell, 2012).

T1: Myc-epsin1 (UniProt O88339 1-575)
T1 sequence (looked up): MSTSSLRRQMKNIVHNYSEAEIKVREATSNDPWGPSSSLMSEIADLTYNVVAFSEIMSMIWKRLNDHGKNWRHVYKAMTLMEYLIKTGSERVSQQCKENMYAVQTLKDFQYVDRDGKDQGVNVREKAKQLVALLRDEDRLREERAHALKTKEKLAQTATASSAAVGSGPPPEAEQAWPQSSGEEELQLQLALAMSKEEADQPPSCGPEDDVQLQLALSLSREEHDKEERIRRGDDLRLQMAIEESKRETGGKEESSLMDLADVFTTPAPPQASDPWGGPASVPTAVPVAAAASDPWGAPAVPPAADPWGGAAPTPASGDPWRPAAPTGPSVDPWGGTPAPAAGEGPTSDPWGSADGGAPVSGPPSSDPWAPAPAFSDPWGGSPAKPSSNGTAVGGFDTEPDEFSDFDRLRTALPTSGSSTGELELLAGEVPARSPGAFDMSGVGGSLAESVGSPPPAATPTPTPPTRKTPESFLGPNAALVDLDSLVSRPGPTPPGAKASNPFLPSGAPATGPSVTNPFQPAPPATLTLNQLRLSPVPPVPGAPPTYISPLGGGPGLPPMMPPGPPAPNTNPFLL

B1: Dll1 expressed in 293T cells (ligand, UniProt P97677 18-714, looked up)
chain: QVWSSGVFELKLQEFVNKKGLLGNRNCCRGGSGPPCACRTFFRVCLKHYQASVSPEPPCTYGSAVTAVLGVDSFSLPDGAGIDPAFSNPIRFPFGFTWPGTFSLIIEALHTDSPDDLATENPERLISRLTTQRHLTVGEEWSQDLHSSGRTDLRYSYRFVCDEHYYGEGCSVFCRPRDDAFGHFTCGERGEKMCDPGWKGQYCTDPICLPGCDDQHGYCDKPGECKCRVGWQGRYCDECIRYPGCLHGTCQQPWQCNCQEGWGGLFCNQDLNYCTHHKPCRNGATCTNTGQGSYTCSCRPGYTGANCELEVDECAPSPCRNGGSCTDLEDSYSCTCPPGFYGKVCELSAMTCADGPCFNGGRCSDNPDGGYTCHCPAGFSGFNCEKKIDLCSSSPCSNGAKCVDLGNSYLCRCQTGFSGRYCEDNVDDCASSPCANGGTCRDSVNDFSCTCPPGYTGRNCSAPVSRCEHAPCHNGATCHQRGQRYMCECAQGYGGANCQFLLPEPPPDLIVAAQGGSFPWVAVCAGVVLVLLLLLGCAAVVVCVRLKLQKHQPPPDPCGGETETMNNLANCQREKDVSVSIIGATQIKNTNKKADFHGDHGADKSSFKARYPTVDYNLIRDLKGDEATVRDAHSKRDTKCQSQGSVGEEKSTSTLRGGEVPDRKRPESVYSTSKDTKYQSVYVLSAEKDECVIATEV
B2: Delta-like 1 (Dll1) (ligand, UniProt P97677 18-714, looked up)
chain: B1 chain
B3: epsin1-Venus (natural protein, rat, UniProt O88339 1-575, looked up)
chain: T1 sequence (looked up)

Columns and labels:
Test in all cases: co-IP
Myc-epsin1 = biological target: T1, Myc-epsin1
epsin1-Venus = biological target: B3
Delta-like 1 (Dll1) = biological target: B2

With B1 the “fold decrease of the co-IP with PAR-1T560A-eGFP” value (Myc-epsin1) was 2 fold.

For B2, the “fold increase of the co-IP, cells on N1Fc- against Fc-coated dishes” value (epsin1-Venus) was 1.9 fold.

For B3, the “fold increase of the co-IP, cells on N1Fc- against Fc-plates” value (Delta-like 1 (Dll1)) was 1.8 fold.
